± gives the uncertainty stated by the source.

This data set in a line: amyloid nucleation score (Sup35N fusion, yeast selection) (log enrichment); library NNK3; higher = more nucleation; inactive = no reads after selection. Put shortly:
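On medium lacking adenine and uracil, psi-negative yeast expressing peptides of 20 random codons fused to Sup35N were grown 7 days at 30°C after a 24-hour induction with 100 μM copper sulfate. Illumina sequencing of input and output plasmid inserts gave the reads, and sequences under 100 input reads were excluded. The nucleation score is the DiMSum log enrichment of output over input reads, centred on the mode score of non-aggregating sequences.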
Turning to NFFWFYWIWKSSGGYTGWLL, the amyloid nucleation score entry was “inactive”.

Consider HSWWLWNGFVGLAPLVDNFF, for which the amyloid nucleation score entry is “inactive”. In the case of TRWLCLDKLHLFLLCGKIAI, the amyloid nucleation score result was “inactive”. As for DKFMWVGNSCVHSD, the entry is “inactive”. Regarding VFFTHATVLSKSYFNLERLV, the amyloid nucleation score worked out at 0.426 ± 0.33. For WIYYNAVFHACCVYELSNNA, the amyloid nucleation score is 2.85 ± 0.067. In the case of CFPCLWP it was 1.26 ± 0.12; in that of LLFSLHCCCKSTYFFKSFLN, “inactive”. In the case of SAVLPLALVGHDTPNRAQLN it was “inactive”; in that of NVISV, “inactive”; in that of FGVTVSYKWWRWSPLSYCAM, “inactive”. As for NFCFDSPLIFPDCQLG, the entry is “inactive”; as for PNFLRTCLLTYRGRSY, “inactive”; as for FMDYTARVVHLTAQRFMGLW, 0.189 ± 0.43. On to SYRLCCSMIGFSTGGRSHVE, for which the amyloid nucleation score entry was “inactive”. For the substance PFTPFSHVR, the amyloid nucleation score result was “inactive”.

With APRLFKQIIVTQTDGSLEGE, the amyloid nucleation score result was “inactive”. In the case of GPGQLYLLDM it was “inactive”; in that of TLNFMWASEVLVSMSVSNQL, “inactive”. In the case of ESAYFLAYLQVLLWRVMGEL, the amyloid nucleation score result was “inactive”.

FLAIGLFSSNT yielded an amyloid nucleation score of 1.73 ± 0.061. In the case of SFSFVVPQARYFPTC, the amyloid nucleation score result was “inactive”.

KPLSRSLRHSLCNRTAMIRF came in with an amyloid nucleation score of 0.672 ± 0.32. Turning to SMFKLMRP, the amyloid nucleation score entry is “inactive”. Take NLMFVLHRTSWSNFCLKRKC: the amyloid nucleation score entry was “inactive”. In the case of LVDAVHLCSNVNYTFCTNAG it was 1.3 ± 0.074; in that of SVLWLVCMDCHPQKSVSCD, 0.863 ± 0.25; in that of KMVGVKK, “inactive”. Consider LNTCNVFKYFVSGKRFREVG, for which the amyloid nucleation score entry is “inactive”.

NIIKSTVIY: the amyloid nucleation score entry was “inactive”. Consider GPVLGSCIRRH, for which the amyloid nucleation score entry is “inactive”.

For the substance RMFWRYWYSQEMGYDRAIKG, the amyloid nucleation score result is “inactive”.

GAYSGLCSILGSFLGLSAVK: the amyloid nucleation score result is “inactive”. In the case of QVSLLYSVECMTFSFGNGDA it was 1.6 ± 0.11.

For FPFSYVYSR, the amyloid nucleation score result is “inactive”. DIFWYTASNYYIIYNAYYPA registered an amyloid nucleation score of 0.709 ± 0.14. Regarding HSIGPVIKRCCVIFSLR, the amyloid nucleation score entry was “inactive”. As for KHVMLCCNFRKLHSATHKRT, the entry is “inactive”; as for LLCNESILKPVTPKWRDCKL, “inactive”. As for GSFVVMF, the entry is “inactive”; as for SQKRPMCFSCWTHMVFHSWF, -0.257 ± 0.46. As to YSHSGIRIKRLEASEYTWPS, the amyloid nucleation score result is “inactive”. As for FMIAQGYHMLYLKHLCTSRN, the entry is “inactive”.

Consider MDLITFGKKMREAQARILLV, for which the amyloid nucleation score entry was “inactive”. In the case of RAVNKFAVNTTKGGSHSWHS it was “inactive”; in that of KRSDVYVGKNCSEDMRFSNL, “inactive”; in that of GRDCICDLRMETIGDTFTGW, “inactive”. With IDPQS, the amyloid nucleation score entry was “inactive”. Consider YIDTW, for which the amyloid nucleation score entry is “inactive”.

With TYVGVYALIF, the amyloid nucleation score is -1.12 ± 1.5.

In turn, GFIHWRGAIWVSL showed an amyloid nucleation score of -0.65 ± 1.9.

In the case of TCKWFFHHAIDCLRKRISME, the amyloid nucleation score result is “inactive”. As for QVRVVGHFKWYRIGTKVRDI, the entry is “inactive”. Consider EDMVARGSLSKGHWKDLAT, for which the amyloid nucleation score result was “inactive”.

Source of the values: the supplement of paper PMC12042874.
